Experimental data published in patent publication US12006343B2, “C4BP-based compounds for treating immunological diseases” (FUNDACIO INSTITUT D'INVESTIGACIO BIOMEDICA DE BELLVITGE …, priority 2017, dated 2024).

How the values were obtained:
[1] = tested on: human monocyte-derived DCs; settings: negative control; Olivar et al. 2013; cited from earlier work
[2] = tested on: human monocyte-derived DCs; assay: Immunomodulatory activity over human monocyte-derived DCs: CD83/CD86 surface expression by flow cytometry after LPS maturation; format: cell-based; settings: MoDCs pre-incubated with 5 μg/ml protein, LPS challenge; FIG. 4

B1: C4BP(β+): major C4BP α7β1 plus minor C4BP α6β1 isoforms (in complex with ProS) purified from pooled human plasma; negative control (protein, UniProt P04003 49-597; P20851 18-252, looked up)
C4b-binding protein alpha …: NCGPPPTLSFAAPMDITLTETRFKTGTTLKYTCLPGYVRSHSTQTLTCNSDGEWVYNTFCIYKRCRHPGELRNGQVEIKTDLSFGSQIEFSCSEGFFLIGSTTSRCEVQDRGVGWSHPLPQCEIVKCKPPPDIRNGRHSGEENFYAYGFSVTYSCDPRFSLLGHASISCTVENETIGVWRPSPPTCEKITCRKPDVSHGEMVSGFGPIYNYKDTIVFKCQKGFVLRGSSVIHCDADSKWNPSPPACEPNSCINLPDIPHASWETYPRPTKEDVYVVGTVLRYRCHPGYKPTTDEPTTVICQKNLRWTPYQGCEALCCPEPKLNNGEITQHRKSRPANHCVYFYGDEISFSCHETSRFSAICQGDGTWSPRTPSCGDICNFPPKIAHGHYKQSSSYSFFKEEIIYECDKGYILVGQAKLSCSYSHWSAPAPQCKALCRKPELVNGRLSVDKDQYVEPENVTIQCDSGYGVVGPQSITCSGNRTWYPEVPKCEWETPEGCEQVLTGKRLMQCLPNPEDVKMALEVYKLSLEIEQLELQRDSARQSTLDKEL
C4b-binding protein beta chain: SDAEHCPELPPVDNSIFVAKEVEGQILGTYVCIKGYHLVGKKTLFCNASKEWDNTTTECRLGHCPDPVLVNGEFSSSGPVNVSDKITFMCNDHYILKGSNRSQCLEDHTWAPPFPICKSRDCDPPGNPVHGYFEGNNFTLGSTISYYCEDRYYLVGVQEQQCVDGEWSSALPVCKLIQEAPKPECEKALLAFQESKNLCEAMENFMQQLKESGMTMEELKYSLELKKAELKAKLL
modifications: in complex with protein S
notes: major C4BP α7β1 plus minor C4BP α6β1 isoforms (in complex with ProS) purified from pooled human plasma; negative control
[1]
  immunomodulatory activity: no immunomodulatory activity
[2]
  semi-mature, anti-inflammatory phenotype conferred to LPS-matured MoDCs (immunomodulatory activity): inactive
